The text below walks through data of patent publication US20240043552A1 (Eli Lilly, published 2024).

In one assay the target is T1, hEGFR-Fc-biotin (human, UniProt P00533 25-645, biotin-labelled with EZ-LINK Sulfo-NHS-LC-Biotin).
T1 construct: Bought (R&D systems); Detection antigen of the sandwich; not shown: Fc of the bought fusion protein
Description: sandwich ELISA with mis-matched antigens. As for the experimental part:
(§1) The dual-binding activity of the same synthesized IgG BsAbs is assessed using a sandwich ELISA. […] Sandwich ELISAs are developed for detecting the four different BsAb test articles; one for detecting anti-HER-2/anti-EGFR BsAb activity, one for detecting anti-HER-2/anti-LTPR BsAb activity, one for detecting anti-cMET/anti-EGFR BsAb activity and one for detecting anti-cMET/anti-LTPR BsAb activity. For all ELISAs, clear 96-well round bottom high binding Immulon microtiter plates (Greiner bio-one, cat #650061) are coated overnight at 2-8° C. with 50 μL/well 1 μg/mL hHER-2-Fc or 1 μg/mL hHGFR(cMet)-Fc (both from R&D systems) in a 50 mM Na2CO3 pH 8.3 buffer. The plates are washed 4 times with PBST and blocked with 200 μL/well casein buffer (Pierce) for 1 hr at room temperature. The plates are then washed 4 times with PBST and the parental IgG controls or BsAb IgG test articles are added at 50 μL/well and […] and serially diluted 1:3 down the plate. The controls and test articles are incubated on the plate for 1 hr at room temperature. The plates are then washed 4 times with PBST and 50 μL/well 1 μg/mL hEGFR-Fc-biotin or hLTβR-Fc-biotin (both from R&D systems) is added for 1 hr at room temperature. The plates are then washed 4 times with PBST followed by the addition of a 50 μL/well streptavidin-AP (Jackson Immunoresearch Labs Cat. #016-050-084) diluted 1:1000 in casein buffer. The streptavidin-AP is incubated in each well for 1 hr at room temperature. The plates are then washed 4 times with PBST and 100 μL/well 1-step PNPP substrate is added (Thermo Scientific Cat. #37621). After approximately 5-15 minutes, plates are read for Absorbance (405 nm) using a SPECTRAMAX® UV plate reader (Molecular Devices). Biotin-labeling of the hEGFR-Fc and hLTβR-Fc proteins is performed using EZ-LINK™ Sulfo-NHS-LC-Biotin (Thermo Scientific Cat. #21327) according to the manufacturer's protocol.
Background: In an ELISA, binding on a coated surface is turned into a signal by an enzyme label.

A further assay addresses T2, hHER-2-Fc (human, UniProt P04626 23-652).
T2 construct: Bought (R&D systems); Coated on the plate; not shown: Fc of the bought fusion protein
Put plainly: sandwich ELISA with mis-matched antigens. As to the method: as §1

B1: MetMAb × BHA10 IgG BsAb, CH1/Cκ design 14.1.2 (bispecific antibody)
heavy 1: EVQLVESGGGLVQPGGSLRLSCAASGYTFTSYWLHWVRKAPGKGLEWVGMIDPSNSDTRFNPEFKDRFTISADTSKNTAYLQMNSLRAEDTAVYYCATYRSYVTPLDYWGQGTLVTVSSASTKGPSVFPLAPSSKSTSGGTAALGCLVADYFPEPVTVSWNSGALTSGVHTFPAVLQSSGLYSLSSVVTVPSSSLGTQTYICNVNHKPSNTKVDEKVEPKSCDKTHTCPPCPAPELLGGPSVFLFPPKPKDTLMISRTPEVTCVVVDVSHEDPEVKFNWYVDGVEVHNAKTKPREEQYQSTYRVVSVLTVLHQDWLNGKEYKCKVSNKALPAPIEKTISKAKGQPREPQVYTLPPSREEMTDNQVSLTCLVKGFYPSDIAVEWESNGQPENNYKTTPPVLMSDGSFFLASKLTVDKSRWQQGNVFSCSVMHEALHNHYTQKSLSLSPG
light 1: RIQMTQSPSSLSASVGDRVTITCKSSQSLLYTSSQKNYLAWYQDKPGKAPKLLIYWASTRESGVPSRFSGSGSGTDFTLTISSLQPEDFATYYCQQYYAYPWTFGQGTKVEIKRTVAAPSVFIFPPSDKQLKSGTARVVCLLNNFYPREAKVQWKVDNALQSGNSQESVTEQDSKDSTYSLSSTLTLSKADYEKHKVYACEVTHQGLSSPVTKSFNRGEC
heavy 2: QVQLVQSGAEVKKPGSSVKVSCKASGYTFTTYYLHWVRYAPGQGLEWMGWIYPGNVHAQYNEKFKGRVTITADKSTSTAYMELSSLRSEDTAVYYCARSWEGFPYWGRGTTVTVSSASTKGPSVFPLAPSSKSTSGGTAALGCLVKDYFPEPVTVSWNSGALTSGVHTFPAVLQSSGLYSLSSVVTVPSSSLGTQTYICNVNHKPSNTKVDKKVEPKSCDKTHTCPPCPAPELLGGPSVFLFPPKPKDTLMISRTPEVTCVVVDVSHEDPEVKFNWYVDGVEVHNAKTKPREEQYQSTYRVVSVLTVLHQDWLNGKEYKCKVSNKALPAPIEKTISKAKGQPRRPRVYTLPPSREEMTKNQVSLVCLVKGFYPSDIAVEWESNGQPENNYKTTPPVLDSDGSFFLYSVLTVDKSRWQQGNVFSCSVMHEALHNHYTQKSLSLSPG
light 2: DIQMTQSPSSLSASVGDRVTITCKASQNVGINVAWYQRKPGDAPKSLISSASYRYSGVPSRFSGSGSGTDFTLTISSLQPEDFATYFCQQYDTYPFTFGQGTKVEIKRTVAAPSVFIFPPSDEQLKSGTASVVCLLNNFYPREAKVQWKVDNALQSGNSQESVTEQDSKDSTYSLSSTLTLSKADYEKHKVYACEVTHQGLSSPVTKSFNRGEC
notes: Human IgG1; also called MetMAb × BHA10 14.1.2
For the molecule B1, the binding result with hEGFR-Fc-biotin and with hHER-2-Fc was “no binding” throughout.

B2: MetMAb × BHA10 IgG BsAb, CH1/Cκ design 14.3.1.1 (bispecific antibody)
heavy 1: EVQLVESGGGLVQPGGSLRLSCAASGYTFTSYWLHWVRKAPGKGLEWVGMIDPSNSDTRFNPEFKDRFTISADTSKNTAYLQMNSLRAEDTAVYYCATYRSYVTPLDYWGQGTLVTVSSASTKGPSVFPLAPSSKSTSGGTAALGCLVADYFPEPVTVSWNSGALTSGVHTFPAVLQSSGLYSLASVVTVPSSSLGTQTYICNVNHKPSNTKVDKKVEPKSCDKTHTCPPCPAPELLGGPSVFLFPPKPKDTLMISRTPEVTCVVVDVSHEDPEVKFNWYVDGVEVHNAKTKPREEQYQSTYRVVSVLTVLHQDWLNGKEYKCKVSNKALPAPIEKTISKAKGQPREPQVYTLPPSREEMTDNQVSLTCLVKGFYPSDIAVEWESNGQPENNYKTTPPVLMSDGSFFLASKLTVDKSRWQQGNVFSCSVMHEALHNHYTQKSLSLSPG
light 1: RIQMTQSPSSLSASVGDRVTITCKSSQSLLYTSSQKNYLAWYQDKPGKAPKLLIYWASTRESGVPSRFSGSGSGTDFTLTISSLQPEDFATYYCQQYYAYPWTFGQGTKVEIKRTVAAPSVFIFPPSDEQLKSGTARVVCLLNNFYPREAKVQWKVDNALQSGNSQESVTEQDSKDSTYSLISTLTLSKADYEKHKVYACEVTHQGLSSPVTKSFNRGEC
heavy 2: QVQLVQSGAEVKKPGSSVKVSCKASGYTFTTYYLHWVRYAPGQGLEWMGWIYPGNVHAQYNEKFKGRVTITADKSTSTAYMELSSLRSEDTAVYYCARSWEGFPYWGRGTTVTVSSASTKGPSVFPLAPSSKSTSGGTAALGCLVKDYFPEPVTVSWNSGALTSGVHTFPAVLQSSGLYSLSSVVTVPSSSLGTQTYICNVNHKPSNTKVDEKVEPKSCDKTHTCPPCPAPELLGGPSVFLFPPKPKDTLMISRTPEVTCVVVDVSHEDPEVKFNWYVDGVEVHNAKTKPREEQYQSTYRVVSVLTVLHQDWLNGKEYKCKVSNKALPAPIEKTISKAKGQPRRPRVYTLPPSREEMTKNQVSLVCLVKGFYPSDIAVEWESNGQPENNYKTTPPVLDSDGSFFLYSVLTVDKSRWQQGNVFSCSVMHEALHNHYTQKSLSLSPG
light 2: DIQMTQSPSSLSASVGDRVTITCKASQNVGINVAWYQRKPGDAPKSLISSASYRYSGVPSRFSGSGSGTDFTLTISSLQPEDFATYFCQQYDTYPFTFGQGTKVEIKRTVAAPSVFIFPPSDKQLKSGTASVVCLLNNFYPREAKVQWKVDNALQSGNSQESVTEQDSKDSTYSLSSTLTLSKADYEKHKVYACEVTHQGLSSPVTKSFNRGEC
notes: Human IgG1; also called MetMAb × BHA10 14.3.1.1
As to B2, the binding result with hEGFR-Fc-biotin and in the assay with hHER-2-Fc was “no binding” in each case.

B3: MetMAb × BHA10 IgG BsAb, CH1/Cκ design 14.3.1.2 (bispecific antibody)
heavy 1: EVQLVESGGGLVQPGGSLRLSCAASGYTFTSYWLHWVRKAPGKGLEWVGMIDPSNSDTRFNPEFKDRFTISADTSKNTAYLQMNSLRAEDTAVYYCATYRSYVTPLDYWGQGTLVTVSSASTKGPSVFPLAPSSKSTSGGTAALGCLVADYFPEPVTVSWNSGALTSGVHTFPAVLQSSGLYSLGSVVTVPSSSLGTQTYICNVNHKPSNTKVDKKVEPKSCDKTHTCPPCPAPELLGGPSVFLFPPKPKDTLMISRTPEVTCVVVDVSHEDPEVKFNWYVDGVEVHNAKTKPREEQYQSTYRVVSVLTVLHQDWLNGKEYKCKVSNKALPAPIEKTISKAKGQPREPQVYTLPPSREEMTDNQVSLTCLVKGFYPSDIAVEWESNGQPENNYKTTPPVLMSDGSFFLASKLTVDKSRWQQGNVFSCSVMHEALHNHYTQKSLSLSPG
light 1: RIQMTQSPSSLSASVGDRVTITCKSSQSLLYTSSQKNYLAWYQDKPGKAPKLLIYWASTRESGVPSRFSGSGSGTDFTLTISSLQPEDFATYYCQQYYAYPWTFGQGTKVEIKRTVAAPSVFIFPPSDEQLKSGTARVVCLLNNFYPREAKVQWKVDNALQSGNSQESVTEQDSKDSTYSLISTLTLSKADYEKHKVYACEVTHQGLSSPVTKSFNRGEC
heavy 2: QVQLVQSGAEVKKPGSSVKVSCKASGYTFTTYYLHWVRYAPGQGLEWMGWIYPGNVHAQYNEKFKGRVTITADKSTSTAYMELSSLRSEDTAVYYCARSWEGFPYWGRGTTVTVSSASTKGPSVFPLAPSSKSTSGGTAALGCLVKDYFPEPVTVSWNSGALTSGVHTFPAVLQSSGLYSLSSVVTVPSSSLGTQTYICNVNHKPSNTKVDEKVEPKSCDKTHTCPPCPAPELLGGPSVFLFPPKPKDTLMISRTPEVTCVVVDVSHEDPEVKFNWYVDGVEVHNAKTKPREEQYQSTYRVVSVLTVLHQDWLNGKEYKCKVSNKALPAPIEKTISKAKGQPRRPRVYTLPPSREEMTKNQVSLVCLVKGFYPSDIAVEWESNGQPENNYKTTPPVLDSDGSFFLYSVLTVDKSRWQQGNVFSCSVMHEALHNHYTQKSLSLSPG
light 2: DIQMTQSPSSLSASVGDRVTITCKASQNVGINVAWYQRKPGDAPKSLISSASYRYSGVPSRFSGSGSGTDFTLTISSLQPEDFATYFCQQYDTYPFTFGQGTKVEIKRTVAAPSVFIFPPSDKQLKSGTASVVCLLNNFYPREAKVQWKVDNALQSGNSQESVTEQDSKDSTYSLSSTLTLSKADYEKHKVYACEVTHQGLSSPVTKSFNRGEC
notes: Human IgG1; also called MetMAb × BHA10 14.3.1.2
Take B3: the binding result with hEGFR-Fc-biotin and in the assay with hHER-2-Fc was “no binding” each time.
